Target: human IL13 (IL012, Millipore) (human) (UniProt P35225)
Assay: SPR, Biacore 3000, antibody captured by anti-human Fc, IL13 as analyte; HEK293-FS expression

Sequence of human IL13 (IL012, Millipore) (human) (P35225 35-146 limits assumed): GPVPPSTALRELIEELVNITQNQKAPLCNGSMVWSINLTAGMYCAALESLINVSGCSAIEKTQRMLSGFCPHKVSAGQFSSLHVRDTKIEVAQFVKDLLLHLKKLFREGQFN

B1: anti-IL13 mAb ctrl (antibody, from a related filing, V domains shown)
VH: EVQLKESGPGLVAPGGSLSITCTVSGFSLTDSSINWVRQPPGKGLEWLGMIWGDGRIDYADALKSRLSISKDSSKSQVFLEMTSLRTDDTATYYCARDGYFPYAMDFWGQGTSVTVSS
VL: DIVLTQSPASLAVSLGQRATISCRASESVDSYGQSYMHWYQQKAGQPPKLLIYLASNLESGVPARFSGSGSRTDFTLTIDPVQAEDAATYYCQQNAEDSRTFGGGTKLEIK
Kd: 0.0888 nM | koff: 4.52e-05 s⁻¹ | kon: 508000 M⁻¹ s⁻¹

— patent publication US20230279151A1
